Measurements taken from the supplement of paper PMC9112550, “Optimization of the antimicrobial peptide Bac7 by deep mutational scanning” (BMC Biology, 2022).

test system: Escherichia coli TOP10; assay: shrunken log2 fold change of peptide-encoding DNA abundance (4.5 h post-induction vs induction); higher = less antimicrobial activity (less host growth inhibition); details: time post-induction: 4.5 h; library: site-saturation at positions 5, 18, 19, 20
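Note: peptides expressed intracellularly from a pBAD plasmid library in pooled LB shake-flask culture, induced with 0.3% L-arabinose, DNA abundance read by NGS, three biological replicates, DESeq2 with apeglm shrinkage.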

In order of rising “shrunken log2 fold change” value:
1. RRIRYRPPRLPRPRPRPGMYPRP  -1.44
2. RRIRVRPPRLPRPRPRPFVSPRP  -0.679
3. RRIRYRPPRLPRPRPRPASLPRP  -0.662
4. RRIRIRPPRLPRPRPRPWIPPRP  -0.562
5. RRIRNRPPRLPRPRPRPHTYPRP  -0.501
6. RRIRPRPPRLPRPRPRPFSLPRP  -0.365
7. RRIRERPPRLPRPRPRPNCYPRP  -0.342
8. RRIRQRPPRLPRPRPRPSRIPRP  -0.305
9. RRIRHRPPRLPRPRPRPDTCPRP  -0.287
10. RRIRERPPRLPRPRPRPASNPRP  -0.257
11. RRIRCRPPRLPRPRPRPNSDPRP  -0.255
12. RRIRHRPPRLPRPRPRPSYAPRP  -0.21
13. RRIRPRPPRLPRPRPRPHWDPRP  -0.208
14. RRIRDRPPRLPRPRPRPVTSPRP  -0.2
15. RRIRLRPPRLPRPRPRPQILPRP  -0.172
16. RRIRVRPPRLPRPRPRPHIVPRP  -0.165
17. RRIRIRPPRLPRPRPRPGGLPRP  -0.16
18. RRIRVRPPRLPRPRPRPRVNPRP  -0.159
19. RRIRMRPPRLPRPRPRPFIMPRP  -0.158
20. RRIRQRPPRLPRPRPRPIQYPRP  -0.151
21. RRIRERPPRLPRPRPRPPSTPRP  -0.136
22. RRIRWRPPRLPRPRPRPHAIPRP  -0.124
23. RRIRSRPPRLPRPRPRPNGHPRP  -0.0925
24. RRIRLRPPRLPRPRPRPNRLPRP  -0.0858
25. RRIRTRPPRLPRPRPRPMMQPRP  -0.0796
26. RRIRHRPPRLPRPRPRPNSRPRP  -0.0698
27. RRIRKRPPRLPRPRPRPSMLPRP  -0.0569
28. RRIRYRPPRLPRPRPRPEQHPRP  -0.0567
29. RRIRIRPPRLPRPRPRPDKTPRP  -0.0467
30. RRIRNRPPRLPRPRPRPEYTPRP  -0.0431
31. RRIRRRPPRLPRPRPRPMVLPRP  -0.0254
32. RRIRLRPPRLPRPRPRPVGKPRP  -0.0227
33. RRIRLRPPRLPRPRPRPDHVPRP  -0.00963
34. RRIRQRPPRLPRPRPRPWCNPRP  -0.00865
35. RRIRDRPPRLPRPRPRPMHVPRP  -0.00476
36. RRIRWRPPRLPRPRPRPEQGPRP  -0.00277
37. RRIRPRPPRLPRPRPRPEWKPRP  -0.00168
38. RRIRERPPRLPRPRPRPTEFPRP  0.000688
39. RRIRNRPPRLPRPRPRPMQRPRP  0.00752
40. RRIRYRPPRLPRPRPRPWGGPRP  0.011
41. RRIRKRPPRLPRPRPRPDTLPRP  0.0227
42. RRIRQRPPRLPRPRPRPTEQPRP  0.0331
43. RRIRVRPPRLPRPRPRPRKFPRP  0.0551
44. RRIRNRPPRLPRPRPRPESNPRP  0.0856
45. RRIRQRPPRLPRPRPRPMTPPRP  0.126
46. RRIRPRPPRLPRPRPRPRLYPRP  0.127
47. RRIRLRPPRLPRPRPRPGLFPRP  0.157
48. RRIRNRPPRLPRPRPRPARLPRP  0.184
49. RRIRLRPPRLPRPRPRPESAPRP  0.228
50. RRIRPRPPRLPRPRPRPGWTPRP  0.235
51. RRIRTRPPRLPRPRPRPSAPPRP  0.269
52. RRIRLRPPRLPRPRPRPMPRPRP  0.291
53. RRIRLRPPRLPRPRPRPKPDPRP  0.315
54. RRIRRRPPRLPRPRPRPSKMPRP  0.335
55. RRIRVRPPRLPRPRPRPATPPRP  0.35
56. RRIRARPPRLPRPRPRPRACPRP  0.447
57. RRIRFRPPRLPRPRPRPPCAPRP  0.576
58. RRIRWRPPRLPRPRPRPPGEPRP  0.625
59. RRIRGRPPRLPRPRPRPARFPRP  0.683
60. RRIRPRPPRLPRPRPRPGFGPRP  0.752
61. RRIRDRPPRLPRPRPRPHIPPRP  2.08
62. RRIRERPPRLPRPRPRPTWCPRP  3.3
63. RRIRGRPPRLPRPRPRPDADPRP  3.64
